Test results from the Immune Epitope Database (IEDB).

Assays:
HLA-A*69:01 = assay: IEDB peptide-MHC binding, purified MHC/direct/fluorescence; filed as Kd, often an IC50 or EC50 that approximates it; ≥ and ≤ were set here for values at or beyond the usual limits of such assays
HLA-A*11:01 [1] = assay: as above
HLA-B*44:02 = assay: IEDB peptide-MHC binding, purified MHC/competitive/radioactivity; filed as Kd, often an IC50 or EC50 that approximates it; ≥ and ≤ were set here for values at or beyond the usual limits of such assays
HLA-B*07:02 = assay: IEDB peptide-MHC binding, purified MHC/direct/fluorescence; filed as Kd, often an IC50 or EC50 that approximates it; ≥ and ≤ were set here for values at or beyond the usual limits of such assays
HLA-A*23:01 = assay: IEDB peptide-MHC binding, purified MHC/competitive/radioactivity; filed as Kd, often an IC50 or EC50 that approximates it; ≥ and ≤ were set here for values at or beyond the usual limits of such assays
HLA-A*24:02 = assay: as above
HLA-A*30:02 = assay: as above
HLA-A*01:01 [2] = assay: as above
HLA-A*26:01 [3] = assay: as above
HLA-A*02:01 [4] = assay: IEDB peptide-MHC binding, purified MHC/competitive/fluorescence; filed as Kd, often an IC50 or EC50 that approximates it; ≥ and ≤ were set here for values at or beyond the usual limits of such assays
HLA-A*02:01 [5] = assay: IEDB peptide-MHC binding, purified MHC/competitive/fluorescence; ≥ and ≤ were set here for values at or beyond the usual limits of such assays
HLA-A*26:01 [6] = assay: IEDB peptide-MHC binding, purified MHC/competitive/fluorescence; filed as Kd, often an IC50 or EC50 that approximates it; ≥ and ≤ were set here for values at or beyond the usual limits of such assays
HLA-B*58:01 = assay: IEDB peptide-MHC binding, purified MHC/direct/fluorescence; filed as Kd, often an IC50 or EC50 that approximates it; ≥ and ≤ were set here for values at or beyond the usual limits of such assays
HLA-A*30:01 = assay: IEDB peptide-MHC binding, purified MHC/competitive/radioactivity; filed as Kd, often an IC50 or EC50 that approximates it; ≥ and ≤ were set here for values at or beyond the usual limits of such assays
HLA-B*08:01 = assay: as above
HLA-A*32:01 = assay: as above
HLA-A*03:01 = assay: IEDB peptide-MHC binding, purified MHC/direct/fluorescence; filed as Kd, often an IC50 or EC50 that approximates it; ≥ and ≤ were set here for values at or beyond the usual limits of such assays
HLA-A*31:01 = assay: as above
HLA-B*27:05 = assay: as above; details: source organism: Mammarenavirus juninense
HLA-A*11:01 [7] = assay: IEDB peptide-MHC binding, purified MHC/competitive/radioactivity; filed as Kd, often an IC50 or EC50 that approximates it; ≥ and ≤ were set here for values at or beyond the usual limits of such assays; details: source organism: Dengue virus 4 Philippines/H241/1956
HLA-B*40:01 = assay: IEDB peptide-MHC binding, purified MHC/direct/fluorescence; filed as Kd, often an IC50 or EC50 that approximates it; ≥ and ≤ were set here for values at or beyond the usual limits of such assays; details: source organism: SARS-CoV1
HLA-A*01:01 [8] = assay: as above; details: source organism: SARS-CoV1
HLA-B*15:01 = assay: as above; details: source organism: SARS-CoV1
HLA-A*02:01 [9] = assay: as above; details: source organism: Homo sapiens
[10] = source organism: Salmonella enterica subsp. enterica serovar Typhi
[11] = source organism: Dengue virus 1 Brazil/97-11/1997
[12] = source organism: Dengue virus 4 Philippines/H241/1956
[13] = source organism: Dengue virus 3 Martinique/1243/1999
[14] = source organism: Sudan ebolavirus
[15] = source organism: Dengue virus 2 Peru/IQT2913/1996
[16] = source organism: Dengue virus 2 Jamaica/1409/1983
[17] = source organism: Vaccinia virus WR
[18] = source organism: Zaire ebolavirus
[19] = source organism: Mammarenavirus lassaense
[20] = source organism: Dengue virus 3 Singapore/8120/1995
[21] = source organism: Yersinia pestis Antiqua
[22] = source organism: Vaccinia virus Copenhagen
[23] = source organism: Dengue virus 1 Singapore/S275/1990
[24] = source organism: Francisella tularensis subsp. holarctica LVS
[25] = source organism: Orthohantavirus hantanense

AAGLPAIFV
Kd (HLA-A*69:01; [10]): 1070 nM | Kd (HLA-A*11:01 [1]; [10]): 3860 nM

AGEKALKLSW
Kd (HLA-B*44:02; [11]): 576 nM

APRALLLLL
Kd (HLA-B*07:02; source organism: Homo sapiens): 2100 nM

AWRTIMAVLF
Kd (HLA-A*23:01; [12]): 51.5 nM | Kd (HLA-A*24:02; [12]): 22.1 nM

CIAIGIITLY
Kd (HLA-A*30:02; [13]): ≥ 69700 nM | Kd (HLA-A*01:01 [2]; [13]): 7450 nM | Kd (HLA-A*26:01 [3]; [13]): 121 nM

CLMTYSHHA
Kd (HLA-A*02:01 [4]; source organism: Escherichia coli F11): 0.9 nM

CLPPPPDGV
IC50 (HLA-A*02:01 [5]; [14]): 1490 nM

CYSQVNPLTL
Kd (HLA-A*23:01; [11]): 189 nM | Kd (HLA-A*24:02; [11]): 144 nM

DGLSSVGGY
Kd (HLA-A*26:01 [6]; source organism: Azotobacter vinelandii DJ): ≥ 20000 nM

DKKGKVVGLY
Kd (HLA-A*30:02; [15]): 2.56 nM

DLVHFASPL
IC50 (HLA-A*02:01 [5]; source organism: Hepatitis B virus): ≥ 366000 nM

DPSGAYFAW
Kd (HLA-B*58:01; source organism: Homo sapiens): 1570 nM | Kd (HLA-B*07:02; source organism: Homo sapiens): 17600 nM

DTIETLMLLA
Kd (HLA-A*26:01 [3]; [11]): 228 nM

DTITYKCPLL
Kd (HLA-A*26:01 [3]; [16]): 2100 nM | Kd (HLA-A*30:01; [16]): 1140 nM

EALKGLPIRY
Kd (HLA-A*26:01 [3]; [13]): 10100 nM

EKMETLQRKY
Kd (HLA-A*26:01 [3]; [16]): ≥ 20100 nM

EKWKKKLNQL
Kd (HLA-B*08:01; [13]): 596 nM

ELSQSMFHY
Kd (HLA-A*26:01 [6]; source organism: Bacillus cereus G9241): 250 nM

EPGSSFKFL
Kd (HLA-B*08:01; [17]): 1880 nM

ETNYYIHPI
Kd (HLA-A*32:01; [17]): 368 nM

EVTEIDQLV
IC50 (HLA-A*02:01 [5]; [14]): ≥ 86100 nM

FKAALSSLA
IC50 (HLA-A*02:01 [5]; [18]): ≥ 109000 nM

FLIKFLLIH
IC50 (HLA-A*02:01 [5]; [18]): ≥ 296000 nM

FLTCTDRSV
Kd (HLA-A*02:01 [4]; source organism: Human alphaherpesvirus 1 strain 17): 83 nM

FPRYHSIEL
Kd (HLA-B*08:01; [17]): 0.492 nM

GNLSPETLV
IC50 (HLA-A*02:01 [5]; source organism: Vaccinia virus): ≥ 106000 nM

GPITTLWEGS
Kd (HLA-A*32:01; [13]): 2870 nM

GRLIWTLDA
IC50 (HLA-A*02:01 [5]; [14]): ≥ 593000 nM

GYSQIGAGVY
Kd (HLA-A*30:02; [16]): 127 nM

HAQRVESWIL
Kd (HLA-B*08:01; [12]): 355 nM

HIPEGETTL
IC50 (HLA-A*02:01 [5]; [14]): 56200 nM

HYLCLNCLS
Kd (HLA-A*30:02; [19]): 14200 nM | Kd (HLA-A*01:01 [2]; [19]): 3730 nM | Kd (HLA-A*26:01 [3]; [19]): ≥ 77900 nM

IDFLLRRWG
IC50 (HLA-A*02:01 [5]; [14]): 26200 nM

ISGLFPVSI
Kd (HLA-A*32:01; [15]): 1260 nM

ITEMGRLPTF
Kd (HLA-A*01:01 [2]; [16]): 17500 nM | Kd (HLA-A*30:01; [16]): 9680 nM

KHMIAGVLF
Kd (HLA-A*24:02; [20]): 683 nM

KRRLRTLIL
Kd (HLA-B*08:01; [13]): 1000 nM

KSFFSRLNW
Kd (HLA-B*58:01; source organism: Influenza A virus (A/Yilan/515/03(H3N2))): 139 nM

KTKNNDWDY
Kd (HLA-A*30:02; [11]): 15 nM | Kd (HLA-A*01:01 [2]; [11]): 595 nM

KYQLAVTIM
Kd (HLA-A*24:02; [16]): 29.2 nM

LHQVFGAIY
Kd (HLA-A*30:02; [16]): 42.7 nM

LIIDEIGYL
Kd (HLA-A*02:01 [4]; [21]): 4.6 nM | Kd (HLA-A*26:01 [6]; [21]): 4.4 nM

LLPDSDVFV
Kd (HLA-A*02:01 [4]; [17]): 1.1 nM

LMYNLLTII
Kd (HLA-A*32:01; [22]): 30.2 nM

LNIMNKLNI
Kd (HLA-A*02:01 [4]; [22]): 406 nM

LRAQNALDNL
Kd (HLA-B*08:01; [11]): 1360 nM

LRKLTSRENL
Kd (HLA-B*08:01; [13]): 4950 nM

LTIGVNYDI
Kd (HLA-A*32:01; [22]): 525 nM

LTSRENLLL
Kd (HLA-A*01:01 [2]; [13]): 418 nM

LWATLLSLTF
Kd (HLA-A*23:01; [23]): 25.3 nM | Kd (HLA-A*24:02; [23]): 193 nM

MAGPLVAGGL
Kd (HLA-B*08:01; [13]): 1070 nM

MFMMIFHFV
Kd (HLA-A*03:01; [24]): ≥ 20000 nM | Kd (HLA-A*31:01; [24]): 12000 nM

MIMYLVLGI
Kd (HLA-A*32:01; [17]): 97.9 nM

MMPIKSIVTL
Kd (HLA-A*02:01 [4]; source organism: Variola virus): 5.1 nM

NAAGIAWIP
IC50 (HLA-A*02:01 [5]; [14]): 64500 nM

NAHEGQLVI
Kd (HLA-A*69:01; [25]): 3400 nM | Kd (HLA-B*07:02; [25]): ≥ 25300 nM

NARLKPLDI
Kd (HLA-B*08:01; [17]): 0.813 nM

NEELITEQM
Kd (HLA-B*44:02; [12]): 281 nM

NRRRRTAGM
Kd (HLA-B*08:01; [15]): 98.9 nM

NVHTWTEQY
Kd (HLA-A*01:01 [2]; [16]): 6040 nM

NWASVKKDLI
Kd (HLA-A*23:01; [13]): 287 nM

PSVEVKLPDY
Kd (HLA-A*30:02; [12]): 162 nM | Kd (HLA-A*01:01 [2]; [12]): 7510 nM

RFLEFEALGF
Kd (HLA-A*23:01; [12]): 1.44 nM

RGEDGCWYGM
Kd (HLA-A*32:01; [16]): 11000 nM

RKDIQQWEPS
Kd (HLA-A*32:01; [16]): 3870 nM

RLANNKVTI
Kd (HLA-A*32:01; [17]): 1.54 nM

RLINNRVLF
Kd (HLA-A*32:01; [17]): 5.67 nM

RMPEAAPPV
Kd (HLA-A*02:01 [4]; source organism: Tupaia belangeri): 0.5 nM

RRDLKLVDV
Kd (HLA-B*27:05): ≥ 20000 nM

RSFEIINVL
Kd (HLA-A*32:01; [17]): 2.9 nM

RWFVERNMVT
Kd (HLA-A*24:02; [16]): 855 nM

SALTLHWFRK
Kd (HLA-A*32:01; [12]): 1940 nM | Kd (HLA-A*11:01 [7]): 18.4 nM

SDMQKFTIL
Kd (HLA-B*08:01; [17]): 40.9 nM

SEMAEALKG
Kd (HLA-B*44:02; [11]): 14.5 nM

SLYNLVKSSV
Kd (HLA-A*02:01 [4]; source organism: Variola virus): 3.2 nM

SQDTTIPDV
IC50 (HLA-A*02:01 [5]; [18]): 5340 nM

SWKLEKASF
Kd (HLA-A*24:02; [20]): 153 nM

TLLMNELGV
Kd (HLA-A*02:01 [4]; source organism: Influenza A virus (A/nt/60/1968(H3N2))): 0.7 nM

TLNASQYAN
IC50 (HLA-A*02:01 [5]; [22]): ≥ 143000 nM

TNEVHTWTEQ
Kd (HLA-A*32:01; [11]): 5360 nM

TSKKRSWPLN
Kd (HLA-A*32:01; [16]): ≥ 38600 nM | Kd (HLA-A*30:01; [16]): 4530 nM

TTRHRKPTY
Kd (HLA-A*30:02; [12]): 658 nM | Kd (HLA-A*30:01; [12]): 1180 nM

TWAFCEVLTL
Kd (HLA-A*23:01; [12]): 237 nM | Kd (HLA-A*24:02; [12]): 2230 nM

VIWILIVAI
Kd (HLA-A*32:01; [17]): 198 nM

VQTVRTQVY
Kd (HLA-B*40:01): ≥ 168000 nM | Kd (HLA-A*03:01; source organism: SARS-CoV1): 6620 nM | Kd (HLA-A*11:01 [1]; source organism: SARS-CoV1): ≥ 44700 nM | Kd (HLA-A*01:01 [8]): ≥ 24700 nM | Kd (HLA-B*15:01): 144 nM | Kd (HLA-B*07:02; source organism: SARS-CoV1): 16700 nM

VTDKEKPVNI
Kd (HLA-A*01:01 [2]; [11]): 15500 nM

WHLGKLEMDF
Kd (HLA-A*23:01; [16]): 1880 nM

YLGSWATGK
Kd (HLA-A*02:01 [9]): 15800 nM | Kd (HLA-A*03:01; source organism: Homo sapiens): 257 nM | Kd (HLA-A*11:01 [1]; source organism: Homo sapiens): 1440 nM | Kd (HLA-A*31:01; source organism: Homo sapiens): 1960 nM

YWVSCGTGNI
Kd (HLA-A*23:01; [11]): 165 nM

YYMATLKNV
Kd (HLA-A*23:01; [12]): 319 nM | Kd (HLA-A*24:02; [12]): 74.2 nM
